The labels stand for the following.
T1: extracellular domain of activin receptor type IIB (ActRIIBecd), biotinylated (Homo sapiens (Human), UniProt Q13705 27-117, amino-biotinylated with amine-PEG3-Biotin)
T1 construct: immobilised on a streptavidin-coated sensor chip; also called biotinylated ActRIIBecd; extracellular domain of ActRIIB
T1 sequence: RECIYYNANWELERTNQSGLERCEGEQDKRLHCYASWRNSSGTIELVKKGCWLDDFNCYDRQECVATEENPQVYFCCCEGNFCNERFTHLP

B1: SEQ ID NO: 308, cysteine pairs C59-C59^b, C8-C41^b, C9-C43^b, C88-C92^a (designed binder)
chain: NSKDPKACCVPTELSAPSPLYLDENEKPVLKNYQDMVVHGCGCRGQAKRKGYKRLKSSCKRHPLYVDFKDVGWNDHAVAPPGYHAFYCHGECPFPLADHLNSDNHAIVQTKVNSV
modifications: disulfides C59-C59 (inter), C8-C41 (inter), C9-C43 (inter), C88-C92 (intra)
notes: homodimer by intermolecular disulfide
B2: SEQ ID NO: 340, cysteine pairs C15-C15^b, C29-C64^b, C30-C62^b, C88-C92^a (designed binder)
chain: AQAKHKQRKRLKSSCKRHPLYNSKDPKACCVPTELSAPSPLYLDENEKPVLKNYQDMVVHGCGCRVDFKDVGWNDHAVAPPGYHAFYCHGECPFPLADHLNSDNHAIVQTKVNSV
modifications: disulfides C15-C15 (inter), C29-C64 (inter), C30-C62 (inter), C88-C92 (intra)
notes: as for B1
B3: SEQ ID NO: 284, cysteine pairs C59-C59^b, C8-C43^b, C9-C41^b, C88-C92^a (designed binder)
chain: NSKIPKACCVPTELSAISMLYLDENEKVVLKNYQDMVVEGCGCRAQAKHKQRKRLKSSCKRHPLYVDFSDVGWNDWIVAPPGYHAFYCHGECPFPLADHLNSTNHAIVQTLVNSV
modifications: disulfides C59-C59 (inter), C8-C43 (inter), C9-C41 (inter), C88-C92 (intra)
notes: as for B1
B4: SEQ ID NO: 194, cysteine pairs C23-C27^a (designed binder)
chain: VDFSDVGWNDWIVAPPGYHAFYCHGECPFPLADHLNSTNHAIVQTLVNSVAQAKHKQRKRLKSSCKRHPLY
modifications: disulfides C23-C27 (intra)
B5: SEQ ID NO: 260, cysteine pairs C15-C15^b, C80-C114^a, C79-C112^a, C44-C48^a (designed binder)
chain: AQAKHKQRKRLKSSCKRHPLYVDFSDVGWNDWIVAPPGYHAFYCHGECPFPLADHLNSTNHAIVQTLVNSVNSKIPKACCVPTELSAISMLYLDENEKVVLKNYQDMVVEGCGCR
modifications: disulfides C15-C15 (inter), C80-C114 (intra), C79-C112 (intra), C44-C48 (intra)
notes: as for B1
B6: SEQ ID NO: 230, cysteine pairs C27-C65^a (designed binder)
chain: VDFKDVGWNDHAVAPPGYHAFYCHGECPFPLADHLNSDNHAIVQTKVNSVGQAKRKGYKRLKSSCKRHPLY
modifications: disulfides C27-C65 (intra)
B7: SEQ ID NO: 206, cysteine pairs C67-C71^a, C8-C43^b, C9-C41^b (designed binder)
chain: NSKIPKACCVPTELSAISMLYLDENEKVVLKNYQDMVVEGCGCRVDFSDVGWNDWIVAPPGYHAFYCHGECPFPLADHLNSTNHAIVQTLVNSV
modifications: disulfides C67-C71 (intra), C8-C43 (inter), C9-C41 (inter)
notes: as for B1
B8: SEQ ID NO: 324, cysteine pairs C80-C114^a, C79-C112^a, C44-C48^a (designed binder)
chain: B5 chain with S25K, W32H, I33A, T59D, L67K
modifications: disulfides C80-C114 (intra), C79-C112 (intra), C44-C48 (intra)
B9: SEQ ID NO: 242, cysteine pairs C15-C15^b, C29-C64^a, C30-C62^a (designed binder)
chain: GQAKRKGYKRLKSSCKRHPLYNSKDPKACCVPTELSAPSPLYLDENEKPVLKNYQDMVVHGCGCR
modifications: disulfide 29-64, 30-62; also: homodimer via intermolecular C15-C15 disulfide
notes: as for B1
B10: SEQ ID NO: 300, cysteine pairs C23-C27^a (designed binder)
chain: VDFKDVGWNDHAVAPPGYHAFYCHGECPFPLADHLNSDNHAIVQTKVNSVGQAKRKGYKRLKSSCKRHPLYNSKDPKACCVPTELSAPSPLYLDENEKPVLKNYQDMVVHGCGCR
modifications: disulfides C23-C27 (intra)
B11: SEQ ID NO: 268, cysteine pairs C23-C27^a (designed binder)
chain: VDFSDVGWNDWIVAPPGYHAFYCHGECPFPLADHLNSTNHAIVQTLVNSVAQAKHKQRKRLKSSCKRHPLYNSKIPKACCVPTELSAISMLYLDENEKVVLKNYQDMVVEGCGCR
modifications: disulfides C23-C27 (intra)
B12: SEQ ID NO: 292, cysteine pairs C44-C48^a (designed binder)
chain: GQAKRKGYKRLKSSCKRHPLYVDFKDVGWNDHAVAPPGYHAFYCHGECPFPLADHLNSDNHAIVQTKVNSVNSKDPKACCVPTELSAPSPLYLDENEKPVLKNYQDMVVHGCGCR
modifications: disulfides C44-C48 (intra)

Changes are numbered by the printed parent chain. Bridges are numbered along the chain shown (N, C = ends).

The first assay concerns the target T1, extracellular domain of activin …. Description: BIAcore SPR as Example 5 (method not restated); SD ±1.55 nM. As for the experimental part:
(§1) Biosensor experiments. In one embodiment, experiments were performed on a BIAcore™ T100/T200 instrument (Pharmacia Biosensor AB) in the multichannel mode (serial flow path involving flow cells 1+2+3+4). Flow rate was 10 μl/min; temperature was 25° C.; and data were recorded at 2.5 points/s. All four segments of a sensor chip CMS were coated with streptavidin (Sigma) to a density of 2000 pg/mm² (2000 resonance units) by the aminocoupling procedure. ActRIIBecd (10 mg) and amine-PEG3-Biotin (10 mg, Pierce, Rockford, Ill.) were dissolved in 200 μl H₂O and 10 mg NaCNBH₃ was added to prepare biotinylated ActRIIBecd. The reaction mixture was heated at 70° C. for 24 h, after that a further 10 mg NaCNBH₃ was added and the reaction was heated at 70° C. for another 24 h. After cooling to room temperature, the mixture was desalted with the spin column (3,000 molecular weight cut off (MWCO)). Biotinylated ActRIIBecd was collected, freeze-dried and used for streptavidin (SA) chip preparation. Amino-biotinylated ActRIIBecd was then immobilized independently on flow cells 2-4 for 10 minutes at a flow rate of 5 μL/min and a concentration of 20 μM in 10 mM sodium acetate, pH 4.0, at a density of 50-250 resonance units (RU). The stored polypeptides were dissolved in glycine buffer (2.5 g of glycine, 0.5 g of sucrose, 370 mg of L-glutamate, 10 mg of sodium chloride, and 10 mg of Tween 80 in 100 mL water, pH 4.5) to prepare 10 mg/mL solution and then diluted with previous glycine buffer to prepare analytes with various concentration. Sensograms were recorded during flow of the analyte (the ActRIIBecd-associated polypeptides (i.e., domains) as previously described) first through flow cell 1 (control) then through flow cell 2 (biotinylated ActRIIBecd). […] The sensograms obtained at 1.11, 3.33, 10, 30, and 90 nM analyte were evaluated for equilibrium binding, association rate, and dissociation rate by using the programs supplied with the instrument (BIA evaluation 2.1; Software Handbook. 1995; Pharmacia Biosensor AB).
For orientation: Kd means the concentration at which binding is half-saturated. Read a low Kd as higher affinity. B1: the affinity, expressed as Kd, was 6.73 nM.
The same measure, in the same setting: the figure for B2 is 6.37 nM; for B3 it is 6.91 nM.

The target is the same in a further assay. Kind of assay: BIAcore SPR as Example 5 (method not restated); SD ±1.67 nM. The protocol:
as §1, with “Biotinylated ActRIIBecd was collected, freeze-dried and used for streptavidin (SA) chip preparation. Amino-biotinylated ActRIIBecd was then immobilized independently on flow cells 2-4 for 10 minutes at a flow rate of 5 μL/min and a concentration of 20 μM in 10 mM sodium acetate, pH 4.0, at a density of 50-250 resonance units (RU). The stored polypeptides were dissolved in glycine buffer (2.5 g of glycine, 0.5 g of sucrose, 370 mg of L-glutamate, 10 mg of sodium chloride, and 10 mg of Tween 80 in 100 mL water, pH 4.5) to prepare 10 mg/mL solution and then diluted with previous glycine buffer to prepare analytes with various concentration.” left out
A general note: SPR reads the build-up and loss of mass on a sensor chip optically.
Turning to B4, the Kd is 18.1 nM.
Same read-out and setting: the figure for B5 is 7.45 nM.

Another assay has the same target. Kind of assay: Mean KD column of Table 5; method not restated (BIAcore as Example 5); species also listed in Table 4. As for the experimental part: (§2) Biosensor experiments. In one embodiment, experiments were performed on a BIAcore™ T100/T200 instrument (Pharmacia Biosensor AB) in the multichannel mode (serial flow path involving flow cells 1+2+3+4). Flow rate was 10 μl/min; temperature was 25° C.; and data were recorded at 2.5 points/s. All four segments of a sensor chip CMS were coated with streptavidin (Sigma) to a density of 2000 pg/mm² (2000 resonance units) by the aminocoupling procedure. ActRIIBecd (10 mg) and amine-PEG3-Biotin (10 mg, Pierce, Rockford, Ill.) were dissolved in 200 μl H₂O and 10 mg NaCNBH₃ was added to prepare biotinylated ActRIIBecd. The reaction mixture was heated at 70° C. for 24 h, after that a further 10 mg NaCNBH₃ was added and the reaction was heated at 70° C. for another 24 h. After cooling to room temperature, the mixture was desalted with the spin column (3,000 molecular weight cut off (MWCO)). Biotinylated ActRIIBecd was collected, freeze-dried and used for streptavidin (SA) chip preparation. Amino-biotinylated ActRIIBecd was then immobilized independently on flow cells 2-4 for 10 minutes at a flow rate of 5 μL/min and a concentration of 20 μM in 10 mM sodium acetate, pH 4.0, at a density of 50-250 resonance units (RU). The stored polypeptides were dissolved in glycine buffer (2.5 g of glycine, 0.5 g of sucrose, 370 mg of L-glutamate, 10 mg of sodium chloride, and 10 mg of Tween 80 in 100 mL water, pH 4.5) to prepare 10 mg/mL solution and then diluted with previous glycine buffer to prepare analytes with various concentration. Sensograms were recorded during flow of the analyte (the ActRIIBecd-associated polypeptides (i.e., domains) as previously described) first through flow cell 1 (control) then through flow cell 2 (biotinylated ActRIIBecd). The sensogram obtained for flow cell 1 was subtracted from the sensogram obtained for flow cell 2. The sensograms obtained at 1.11, 3.33, 10, 30, and 90 nM analyte were evaluated for equilibrium binding, association rate, and dissociation rate by using the programs supplied with the instrument (BIA evaluation 2.1; Software Handbook. 1995; Pharmacia Biosensor AB).
The molecule B6 showed a Kd of 52.2 nM.
B4 came in with a Kd of 18.1 nM.
Same read-out and setting: as for B7, the figure is 17 nM.
Still for that read-out and setting: as for B1, the figure is 6.73 nM.
The same measure, in the same setting: as for B2, the figure is 6.37 nM.
Consider B5, for which the affinity, expressed as Kd, was 7.45 nM.
In turn, B8 showed a Kd of 7.22 nM.
On the same count and under the same terms, the figure for B3 is 6.91 nM; for B9 it is 18.1 nM.

The target is the same in another assay. Kind of assay: BIAcore SPR as Example 5 (method not restated); SD ±2.15 nM. The protocol: as §1, with “Biotinylated ActRIIBecd was collected, freeze-dried and used for streptavidin (SA) chip preparation. Amino-biotinylated ActRIIBecd was then immobilized independently on flow cells 2-4 for 10 minutes at a flow rate of 5 μL/min and a concentration of 20 μM in 10 mM sodium acetate, pH 4.0, at a density of 50-250 resonance units (RU). The stored polypeptides were dissolved in glycine buffer (2.5 g of glycine, 0.5 g of sucrose, 370 mg of L-glutamate, 10 mg of sodium chloride, and 10 mg of Tween 80 in 100 mL water, pH 4.5) to prepare 10 mg/mL solution and then diluted with previous glycine buffer to prepare analytes with various concentration.” left out
With B7, binding was characterised by a dissociation constant (Kd) of 17 nM.
Same read-out and setting: as for B8, the figure is 7.22 nM.

For the next assay the target is unchanged. Kind of assay: BIAcore SPR as Example 5 (method not restated); SD ±1.63 nM. As for the experimental part:
as §1, with “Biotinylated ActRIIBecd was collected, freeze-dried and used for streptavidin (SA) chip preparation. Amino-biotinylated ActRIIBecd was then immobilized independently on flow cells 2-4 for 10 minutes at a flow rate of 5 μL/min and a concentration of 20 μM in 10 mM sodium acetate, pH 4.0, at a density of 50-250 resonance units (RU). The stored polypeptides were dissolved in glycine buffer (2.5 g of glycine, 0.5 g of sucrose, 370 mg of L-glutamate, 10 mg of sodium chloride, and 10 mg of Tween 80 in 100 mL water, pH 4.5) to prepare 10 mg/mL solution and then diluted with previous glycine buffer to prepare analytes with various concentration.” left out
In the case of B6, the Kd worked out at 52.2 nM.
As for B9, binding was put at a Kd of 18.1 nM.

A further assay shares this target. Kind of assay: Mean KD column of Table 5; method not restated (BIAcore as Example 5). As for the experimental part: as §2
In the case of B10, the affinity, expressed as Kd, was 8.92 nM.
The same measure, in the same setting: as for B11, the figure is 8.41 nM.
Take B12: the Kd came out at 7.81 nM.

For the origin of these results see patent publication US20190071480A1 (Biogen, published 2019).
